Results from patent publication US20090286723A1.

Assays:
[1] = biological target: neuropeptide Y2 receptor (SK-N-BE cell membranes) (UniProt P49146); test: [125I]-human PYY displacement, SK-N-BE membranes
[2] = biological target: calcitonin receptor; test: calcitonin receptor binding assay
[3] = biological target: calcitonin receptor; test: cell-based or functional assay

Sequence of neuropeptide Y2 receptor (SK-N-BE cell membranes) (P49146 whole entry): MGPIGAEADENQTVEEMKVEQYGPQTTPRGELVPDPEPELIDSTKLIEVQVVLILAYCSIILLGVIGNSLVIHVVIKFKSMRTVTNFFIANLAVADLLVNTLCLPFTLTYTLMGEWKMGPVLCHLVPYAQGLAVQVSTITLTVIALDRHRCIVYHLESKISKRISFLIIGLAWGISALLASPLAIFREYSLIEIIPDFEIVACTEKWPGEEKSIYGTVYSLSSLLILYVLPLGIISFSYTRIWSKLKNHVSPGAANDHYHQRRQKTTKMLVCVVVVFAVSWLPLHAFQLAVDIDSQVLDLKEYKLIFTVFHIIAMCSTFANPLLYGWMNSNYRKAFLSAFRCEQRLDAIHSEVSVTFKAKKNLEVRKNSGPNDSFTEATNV

Receptor Binding [1] | Receptor Binding [2] | Receptor Activation: CT cyclase [3] | Substance
0.8 | – | – | [#Cys-Gly-Gly-PYY (3-36), amide] [Asp(#)-Pro-Pro-Pro-Pro-Pro-Pro-PYY (3-36), amide] (peptide; modification not given)
0.8 | – | – | [#Cys-Gly-Gly-PYY (3-36), amide] [Asp(#)-miniPEG3-Gly-PYY (3-36), amide] (peptide; modification not given)
– | 643 | 2270 | [#NH-Cys-(bAla)-PYY-(3-36), amide] [#Suc-(bAla)-PYY-(3-36), amide] (peptide)
0.2 | – | – | [Ac-alpha-MSH-bAla-bAla-PYY-(3-36), amide] (peptide; modification not given)
0.8 | – | – | [Asp(#)-miniPEG-Gly-PYY (3-36), amide] [#Cys-Gly-Gly-PYY (3-36), amide] (peptide; modification not given)
